Results on 5 molecules are retold here after publication PMC2575037 (Protein expression and purification, 2008).

The target in data set [1] is T1, bDHFR (Bos taurus, UniProt P00376).
T1 sequence (P00376 1-187): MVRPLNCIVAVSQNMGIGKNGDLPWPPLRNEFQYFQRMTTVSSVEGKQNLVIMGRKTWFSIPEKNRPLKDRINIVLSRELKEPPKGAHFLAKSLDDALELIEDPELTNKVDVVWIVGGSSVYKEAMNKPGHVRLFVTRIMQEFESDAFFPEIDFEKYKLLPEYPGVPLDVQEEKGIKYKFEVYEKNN
The data set is described as follows: spectrophotometric DHFR assay at […] nm. The format is biochemical. To be noted: read-out: % inhibition after preincubation with 0.68 mM.

The target in data set [2] is T2, mDHFR (Mus musculus, UniProt P00375).
T2 sequence (P00375 1-187): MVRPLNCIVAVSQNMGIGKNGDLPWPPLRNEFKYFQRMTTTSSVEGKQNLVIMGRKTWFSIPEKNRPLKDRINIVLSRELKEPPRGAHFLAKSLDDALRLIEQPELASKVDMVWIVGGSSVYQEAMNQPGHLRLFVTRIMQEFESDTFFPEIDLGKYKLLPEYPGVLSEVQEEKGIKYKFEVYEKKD
Kind of data set: spectrophotometric DHFR assay at […] nm. In kind it is biochemical. To be noted: read-out: % inhibition at 122 μM.

For data set [3], the target named is T1, bDHFR. Kind of data set: spectrophotometric DHFR assay at […] nm. In kind it is biochemical.
Substrate in data set [4]: NC(=O)C1=CN([C@@H]2O[C@H](COP(=O)(O)OP(=O)(O)OC[C@H]3O[C@@H](n4cnc5c(N)ncnc54)[C@H](OP(=O)(O)O)[C@@H]3O)[C@@H](O)[C@H]2O)C=CC1
Kind of data set: purified protein. The format is biochemical, Mus musculus. Conditions: 37 °C, KCl, co-substrate DHFA, varied: cofactor.

Substrate in data set [5]: Nc1nc2c(c(=O)[nH]1)N=C(CNc1ccc(C(=O)N[C@@H](CCC(=O)O)C(=O)O)cc1)CN2
Kind of data set: purified protein. To be noted: 37 °C, KCl, co-substrate NADPH.

Substrate in data set [6]: NC(=O)C1=CN([C@@H]2O[C@H](COP(=O)(O)OP(=O)(O)OC[C@H]3O[C@@H](n4cnc5c(N)ncnc54)[C@H](OP(=O)(O)O)[C@@H]3O)[C@@H](O)[C@H]2O)C=CC1
The data set is described as follows: purified protein. The format is biochemical, Bos taurus. Conditions: 37 °C, KCl, co-substrate DHFA, varied: cofactor.

For `O=C(O[C@@H]1Cc2c(O)cc(O)cc2O[C@@H]1c1cc(O)c(O)c(O)c1)c1cc(O)c(O)c(O)c1` [EGCG], in data set [1], the inhibition at 680 µM came to 26%. Moreover, in data set [2], the inhibition at 122 µM is 18%.
With `CNCCC=C1c2ccccc2CCc2ccccc21` [nortriptyline], the inhibition constant Ki in data set [3] was found to be 840 ± 250 nM.

B1: mDHFR (Mus musculus) (protein)
chain: MVRPLNCIVAVSQNMGIGKNGDLPWPPLRNEFKYFQRMTTTSSVEGKQNLVIMGRKTWFSIPEKNRPLKDRINIVLSRELKEPPRGAHFLAKSLDDALRLIEQPELASKVDMVWIVGGSSVYQEAMNQPGHLRLFVTRIMQEFESDTFFPEIDLGKYKLLPEYPGVLSEVQEEKGIKYKFEVYEKKD
With B1, in data set [4], the Km was found to be 2.4 ± 0.5 µM and the kcat is 29 ± 5 s⁻¹. Also, in data set [5], the Michaelis constant (Km) is on record as 0.32 ± 0.05 µM, the kcat was determined as 29 ± 5 s⁻¹ and the kcat/Km came out at 9.2e+07 M⁻¹ s⁻¹.

B2: hDHFR (Homo sapiens) (protein)
chain: MVGSLNCIVAVSQNMGIGKNGDLPWPPLRNEFRYFQRMTTTSSVEGKQNLVIMGKKTWFSIPEKNRPLKGRINLVLSRELKEPPQGAHFLSRSLDDALKLTEQPELANKVDMVWIVGGSSVYKEAMNHPGHLKLFVTRIMQDFESDTFFPEIDLEKYKLLPEYPGVLSDVQEEKGIKYKFEVYEKND
Turning to B2, in data set [5], the Michaelis constant (Km) was 2.7 ± 0.5 µM, the kcat was 40 ± 2 s⁻¹ and the kcat/Km was 1.5e+07 M⁻¹ s⁻¹.

B3: bDHFR (Bos taurus) (protein)
chain: MVRPLNCIVAVSQNMGIGKNGDLPWPPLRNEFQYFQRMTTVSSVEGKQNLVIMGRKTWFSIPEKNRPLKDRINIVLSRELKEPPKGAHFLAKSLDDALELIEDPELTNKVDVVWIVGGSSVYKEAMNKPGHVRLFVTRIMQEFESDAFFPEIDFEKYKLLPEYPGVPLDVQEEKGIKYKFEVYEKNN
For B3, in data set [6], the Michaelis-Menten constant (Km) is reported as 3.2 ± 0.6 µM and the catalytic constant (kcat) stood at 24 ± 7 s⁻¹. Also, in data set [5], the Michaelis-Menten constant (Km) is 0.35 ± 0.13 µM, the catalytic constant (kcat) amounted to 24 ± 7 s⁻¹ and the kcat/Km is 6.8e+07 M⁻¹ s⁻¹.

The term inhibition denotes the change of the read-out against control, counted positive when it falls. The term Ki denotes a measure of affinity in units of concentration, obtained from inhibition or displacement. A lower Ki goes with higher affinity. Usually Km stands for the concentration of substrate that gives half-maximal velocity. A word on the kcat: it is the maximal rate divided by the concentration of active sites. The term kcat/Km denotes the second-order rate constant that governs catalysis at low substrate concentration.
